According to patent publication US6534640B1, “Methods and compositions to alter the cell surface expression of phosphatidylserine and other clot-promoting plasma membrane phospholipids” (Blood Center Research Foundation, priority 1996, dated 2003):
“Also recorded” adds a separate entry of the source.

Key:
[1] = target: T1, PL scramblase (Homo sapiens, UniProt O15162); conditions: cited from earlier work
T1 sequence (O15162 1-318): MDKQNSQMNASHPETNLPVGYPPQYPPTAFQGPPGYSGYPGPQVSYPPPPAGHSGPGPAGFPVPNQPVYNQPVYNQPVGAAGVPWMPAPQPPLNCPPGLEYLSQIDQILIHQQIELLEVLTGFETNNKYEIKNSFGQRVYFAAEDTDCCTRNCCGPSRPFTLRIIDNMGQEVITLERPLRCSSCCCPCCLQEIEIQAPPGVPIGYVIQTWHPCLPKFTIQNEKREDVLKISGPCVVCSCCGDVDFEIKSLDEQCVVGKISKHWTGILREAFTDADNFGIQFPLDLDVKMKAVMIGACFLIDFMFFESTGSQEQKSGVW

[2] = target: T2, human erythrocyte PL scramblase (Homo sapiens, UniProt O15162); assay: Treatment with hydroxylamine, then reconstitution into proteoliposomes and PL scramblase activity assay (NBD-PC); assay type: biochemical; conditions: 1 M hydroxylamine, 1 hour, room temperature, neutral pH; assay in 2 mM Ca2+, 3 hours
T2 construct: PL scramblase purified from human erythrocytes; from tissue; host or cells: human erythrocyte ghost membranes
T2 sequence (O15162 1-318): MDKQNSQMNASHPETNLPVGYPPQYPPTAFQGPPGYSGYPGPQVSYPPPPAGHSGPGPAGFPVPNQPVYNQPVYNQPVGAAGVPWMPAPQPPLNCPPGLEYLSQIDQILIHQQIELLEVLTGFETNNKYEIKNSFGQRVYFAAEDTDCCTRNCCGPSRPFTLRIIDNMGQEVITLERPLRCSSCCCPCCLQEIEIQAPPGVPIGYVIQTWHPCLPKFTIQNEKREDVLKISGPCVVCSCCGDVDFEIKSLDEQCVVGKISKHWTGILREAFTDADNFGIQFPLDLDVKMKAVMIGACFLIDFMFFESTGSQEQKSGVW
Method: Treatment with Hydroxylamine. PL scramblase was incubated 1 hour room temperature in 1 M hydroxylamine, 25 mM octylglucoside, 1 M Tris-HCl at pH 7.4. Match control samples of the protein were identically incubated under these conditions, omitting hydroxylamine. After incubation, samples were dialyzed and reconstituted into PL proteoliposomes for assay of PL scramblase activity.
Membrane reconstitution and assay. PL scramblase was reconstituted into proteliposomes and activity determined as previously described(F. Bassé, et al., supra, 1996; J. G. Stout, et al, supra, 1997).
FIG. 11 illustrates inactivation of PL scramblase by hydroxylamine. Purified human erythrocyte PL scramblase was incubated 1 hour, room temperature, in the presence of 50 mM octylglucoside, 1M TrisHCl, and either 0 (control) or 1M (hydroxylamine) hydroxylamine at pH 7.2. Untreated refers to sample maintained in low ionic strength sample buffer at 4° C. . Each sample was then dialyzed and reconstituted into proteoliposomes for assay of PL scramblase activity using NBD-PC as detailed in Bassé, et al., supra, 1996 with modifications of Stout, et al., supra, 1997. Ordinate indicates percent of total NBD-PC flipped during 3 hours. Incubation was in 2 mM Ca^2+, with correction for background measured in 0.1 mM EGTA. The error bars denote mean±SD, n=7. Combined data of three independent experiments performed on different days.

[3] = system: Raji cells; assay: Prothrombinase assay of transfected Raji cells; assay type: cell-based, human; conditions: transformed Raji cells, 2 μM A23187, vs clones expressing GFP alone
Method: Prothrombinase Assay. Prothrombinase activity of Raji cells was determined by modification of methods previously described for platelets, using the chromogenic thrombin substrate S2238 (P. J. Sims, et al., supra, 1988). Briefly, 1×10^5 Raji cells (transfected with either pEGFP-C2 or pEGFP-C2-PL scramblase) were suspended in 200 μl HBSS containing 1% BSA in the presence of 2 nM FVa, 1.4 μM prothrombin 2.5 mM CaCl2, and 4 μM dansylarginine-N-(3-ethyl-1,5-pentanediyl)amide (to inhibit feed-back activation by thrombin), and incubated at 37° C. Ca^2+-ionophore A23187 (2 μM), or DMSO (as solvent control) was added, and prothrombin conversion was initiated by addition of 2 nM Fxa. Thrombin generation was stopped after 2 minutes by dilution into 10 mM EGTA and samples were stored on ice. Aliquots were transferred to a 96-well plate, and thrombin generated was assayed in TBS containing 1% BSA in presence of 150 μM S2238 by monitoring time-dependent changes in absorbance at 405 nm using a Thermomax plate reader (Molecular Devices, Sunnyvale, Calif.). Thrombin activity was calculated using purified thrombin as standard.

[4] = target: T1, PL scramblase; assay: PL scramblase activity: Ca2+-dependent transbilayer movement of NBD-PC in reconstituted PC/PS proteoliposomes; assay type: biochemical; design: PCR was performed on a full-length clone using the primers; made in house; host or cells: E. coli TB1 (pMAL-C2)
Method: Reconstitution of PL scramblase or scramblase fusion protein into proteoliposomes. Reconstitution and functional activity were performed essentially as previously described (F. Bassé, et al., J. Biol. Chem. 271:17205-17210, 1996; J. G. Stout, et al., J. Clin. Invest. 99:2232-2238, 1997). Briefly, a mixture of PC and PS (9:1 molar ratio) was dried under a stream of nitrogen and resuspended in 100 mM Tris, 100 mM KCl, 0.1 mM EGTA, pH 7.4 (Tris buffer). Protein samples to be reconstituted were added to the liposomes at a final lipid concentration of 4 mg/ml in the presence of 60 mM OG, and dialyzed overnight at 4° C. against 200 vol of Tris buffer containing 1 g/L Bio-Beads SM-2. To liberate PL scramblase from MBP, the proteoliposomes were incubated 3 h at room temperature in the presence of 1/40 (w/w) factor Xa. The digestion was terminated by addition of 100 μM Glu-Gly-Arg chloromethyl ketone. Completeness of the digest was monitored by SDS-PAGE. […]
PL Scramblase activity. Scramblase activity was measured as previously described (F. Bassé, et al., supra, 1996; J. G. Stout, et al., supra, 1997 and in U.S. Ser. No. 08/790,186). […] Proteoliposomes were diluted 25-fold in Tris buffer containing 4 mM EGTA and transferred to a stirred fluorescence cuvet at 23° C. Initial fluorescence was recorded (SLM Aminco 8000 spectrof luorimeter; excitation at 470 nm, emission at 532 nm), 20 mM dithionite was added, and the fluorescence continuously monitored for a total of 120 seconds. The difference in non-quenchable fluorescence observed in presence vs. absence of CaCl2 Was attributed to Ca^2+-induced change in NBD-PC located in the outer leaflet (F. Bassé, et al., supra, 1996; J. G. Stout, et al., supra, 1997; J. C. McIntyre and R.G. Sleight, Biochemistry 30:11819-11827, 1991). Ionized [Ca^2+] was calculated using FreeCal version 4.0 software (generously provided by Dr. Lawrence F. Brass, University of Pennsylvania, Philadelphia, Pa.). […]

O[C@H](CS)[C@H](O)CS (racemic) [dithiothreitol]
PL scramblase activity after incubation in reducing agents [1]: retention of normal PL scramblase activity

NO [hydroxylamine]
PL scramblase activity after incubation with hydroxylamine [2]: near complete loss; also recorded: nearly complete inactivation

B1: recombinant PL scramblase: Recombinant human PL scramblase (SEQ ID NO:2) expressed in E. coli as MBP fusion, liberated by factor Xa (protein, listed as Homo sapiens)
chain: MDKQNSQMNASHPETNLPVGYPPQYPPTAFQGPPGYSGYPGPQVSYPPPPAGHSGPGPAGFPVPNQPVYNQPVYNQPVGAAGVPWMPAPQPPLNCPPGLEYLSQIDQILIHQQIELLEVLTGFETNNKYEIKNSFGQRVYFAAEDTDCCTRNCCGPSRPFTLRIIDNMGQEVITLERPLRCSSCCCPCCLQEIEIQAPPGVPIGYVIQTWHPCLPKFTIQNEKREDVLKISGPCVVCSCCGDVDFEIKSLDEQCVVGKISKHWTGILREAFTDADNFGIQFPLDLDVKMKAVMIGACFLIDFMFFESTGSQEQKSGVW
cell capacity to catalyze the prothrombinase reaction upon entry of calcium into the cytosol [3]: increase | PL scramblase activity ([4]; 2 mM CaCl2, mean±SD of three measurements): 11.76±0.44 % of total NBD-PC flipped | Ca2+-dependent PL scramblase activity (transbilayer movement of NBD-PC) in liposomes ([4]; PC/PS liposomes, absence or presence of 2 mM CaCl2): PL scramblase activity was observed | specific PL mobilizing activity relative to the endogenous protein purified from the erythrocyte membrane ([4]; expressed and purified from E. coli, reconstituted in proteoliposomes): approximately 50%
